Test results taken from US20060110388A1 (APPLIED MOLECULAR EVOLUTION, published 2006).
Positions count from the first letter of the chain named. Where “and” joins values, the source holds several entries; their conditions need not be identical. Equal values may be shown once. One block for each binder: values may come before it.

Key:
β Amyloid peptide 1-40 [1] = target: T1, β Amyloid peptide 1-40 (human, UniProt P05067 672-711); assay: BIAcore; against m266
T1 construct: domain: β Amyloid peptide 1-40; Biotinylated peptide 1-40 (Biosource) on avidin Sepharose only captured free antibody in KinExA; also called Aβ 1-40; human Aβ (1-40)
T1 sequence (P05067 672-711 limits assumed): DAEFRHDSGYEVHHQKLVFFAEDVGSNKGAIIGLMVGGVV
Protocol: (§1) BIAcore™ is an automated biosensor system that measures molecular interactions (Karlsson, et al. (1991) J. Immunol. Methods 145: 229-240). BIAcore™ analyses described herein were carried out at 25° C. In these experiments, antibody was immobilized at low density on a BIAcore™ CM5 or B1 chip. For the m266 antibody goat anti-mouse Fc (Jackson Immunoresearch) immobilized on CM5 in flow cell 2 was used for measuring binding constants. Goat anti-mouse was used as control antibody in flow cell 1. For the humanized antibodies, protein A or protein A/G was immobilized via amine coupling to flow cells 1 and 2 of a B1 or CM5 sensor chip.
Antibody was then captured only to flow cell 2 at desired levels (usually a 10-60 second injection of antibody) and allowed to stabilize for 5 minutes. For these experiments, a fresh aliquot of Aβ 1-40 was thawed and then diluted 1:10 in HBS-EP running buffer. The 1:10 dilution was used to make up a 200 nM Aβ solution which was serially diluted (1:2 dilutions) to a lowest concentration of 6.25 nM. Each concentration was injected over the surface for 5 minutes at a flow rate of 50 μl/min (250 μl total). The Aβ and antibody were eluted from both flow cells with a 40s injection of glycine pH 1.5. The signal is allowed to stabilize for 2 minutes before the next cycle. The data from flow cell 1 is subtracted from flow cell 2 to account for any bulk shifts due to buffer differences or non-specific binding to the sensor chip or Protein A. The various concentrations were injected randomly and each concentration was run in duplicate. Two control runs of buffer only were used to control for any dissociation of antibody from the capture surface. The data was analyzed using the Biaevalution™ software. A 1:1 model with mass transfer and a local Rmax was used as the best fit for the data.
Concentrations of human Aβ (1-40) from 200 nM to 1.6 nM in 2-fold serial dilution were used to obtain on-rate constant. The upper half of Table 6 represents determinations made with a first set of antibody preparations, while the lower half represents determinations made with a second set of antibody preparations

β Amyloid peptide 1-40 [2] = target: T1, β Amyloid peptide 1-40; assay: BIAcore, mAb captured, Aβ 1-40 injected, second set of preparations
Protocol: as §1
(§2) Antibody was then captured only to flow cell 2 at desired levels (usually a 10-60 second injection of antibody) and allowed to stabilize for 5 minutes. For these experiments, a fresh aliquot of Aβ 1-40 was thawed and then diluted 1:10 in HBS-EP running buffer. The 1:10 dilution was used to make up a 200 nM Aβ solution which was serially diluted (1:2 dilutions) to a lowest concentration of 6.25 nM. Each concentration was injected over the surface for 5 minutes at a flow rate of 50 μl/min (250 μl total). The Aβ and antibody were eluted from both flow cells with a 40s injection of glycine pH 1.5. The signal is allowed to stabilize for 2 minutes before the next cycle. […] The data was analyzed using the Biaevalution™ software. […]

β Amyloid peptide 1-40 [3] = target: T1, β Amyloid peptide 1-40; assay: KinExA, mAb, equilibration 16 h
Protocol: (§3) Typical 1× concentrations were 10 pM of antibody active sites (0.75 ng/mL) and an upper antigen concentration of 100 pM (0.43 ng/mL). […] A KinExA™ instrument (Sapidyne) and standard KD run file were then used to determine the KD of the system. Briefly, the KinExA™ flow cell was charged with the β Amyloid peptide coated beads and washed with PBSA. For the first sample, free antibody in solution was captured by the beads washed with PBSA and detected using 1:250 Goat anti-human Cy5 (Jackson Immunochemicals) in PBSA. The flow cell was then flushed, re-charged with beads and the next sample analyzed. The process was repeated until all 12 samples were analyzed.
(§4) For KinExA™ kₒₙ and koff measurements, antigen and antibody were prepared as described above. Antigen and antibody samples at 2× active concentration were prepared in PBSA with 0.2% BSA. Samples were mixed 1:1 and the timing for the experiment started. Typical 1× concentrations were 1 nM antibody active site concentration ([…]) and 2 nM antigen (8.6 ng/mL). A KinExA™ instrument (Sapidyne) and a kineticsdirect run file were used to follow the reaction. Time for each measurement was determined using the manufacturer's instructions. Free antibody remaining in the reaction was captured using β amyloid coated beads packed into the flow cell washed with PBSA and detected at each time point using 1:250 Goat anti-human Cy5 (Jackson) in PBSA. The flow cell was then flushed and recharged with beads for the next measurement, the process continued until a complete decay curve obtained. The data was analyzed using the KinExA™ Inject software.

β Amyloid peptide 1-40 [4] = target: T1, β Amyloid peptide 1-40; assay: KinExA, mAb, single experiment
Protocol: (§5) Typical 1× concentrations were 10 pM of antibody active sites (0.75 ng/mL) and an upper antigen concentration of 100 pM (0.43 ng/mL). The samples were then allowed to equilibrate for 24-72 hours at room temperature. A KinExA™ instrument (Sapidyne) and standard KD run file were then used to determine the KD of the system. Briefly, the KinExA™ flow cell was charged with the β Amyloid peptide coated beads and washed with PBSA. For the first sample, free antibody in solution was captured by the beads washed with PBSA and detected using 1:250 Goat anti-human Cy5 (Jackson Immunochemicals) in PBSA. The flow cell was then flushed, re-charged with beads and the next sample analyzed. The process was repeated until all 12 samples were analyzed.

β Amyloid peptide 1-40 [5] = target: T1, β Amyloid peptide 1-40; assay: BIAcore; m266 is the reference
β Amyloid peptide 1-40 [6] = target: T1, β Amyloid peptide 1-40; assay: KinExA, mAb, single experiment; remark: listed apart in the source
Protocol: as §4
(§6) Association rate constants (kₒₙ) of m266 and antibodies of the present invention with Aβ were determined by KinExA™, using methods as described above in Example 1. The results of two separate kₒₙ determinations by KinExA™, in which separate preparations of antibodies were used, are provided in Tables 7 and 8.

β Amyloid peptide 1-40 [7] = target: T1, β Amyloid peptide 1-40; assay: KinExA, mAb, single experiment; remark: listed apart in the source
Protocol: as §4, §6

β Amyloid peptide 1-40 [8] = target: T1, β Amyloid peptide 1-40; assay: KinExA, mAb; m266 is the reference
β Amyloid peptide 1-40 [9] = target: T1, β Amyloid peptide 1-40; assay: KinExA, mAb; m266 is the reference; remark: listed apart in the source
Protocol: as §4, §6

β Amyloid peptide 1-40 [10] = target: T1, β Amyloid peptide 1-40; assay: KinExA, mAb, average of the experiments
Protocol: as §5

β Amyloid peptide 1-40 [11] = target: T1, β Amyloid peptide 1-40; assay: KinExA, mAb, average of the experiments; remark: listed apart in the source
Protocol: as §4, §6

β Amyloid peptide 1-40 [12] = target: T1, β Amyloid peptide 1-40; assay: KinExA, mAb, average of the experiments; remark: listed apart in the source
Protocol: as §4, §6

β Amyloid peptide 1-40 [13] = target: T1, β Amyloid peptide 1-40; assay: KinExA, mAb, single experiment, separate antigen preparation
Protocol: as §4
(§7) Association rate constants (kₒₙ) of m266 and antibodies of the present invention with Aβ were determined by KinExA™, using methods as described above in Example 1. […]
(§8) ^aNumbers in bold are the averages calculated from individual experiments. ^bA separate preparation of antibodies was used for these experiments. ^cA separate preparation of antigen was used for these experiments.

β Amyloid peptide 1-40 [14] = target: T1, β Amyloid peptide 1-40; assay: KinExA, mAb, single experiment, separate antibody preparation
Protocol: as §4, §7, §8

β Amyloid peptide 1-40 [15] = target: T1, β Amyloid peptide 1-40; assay: KinExA, mAb, single experiment, separate antibody and antigen preparations
Protocol: as §4, §7, §8

β Amyloid peptide 1-40 [16] = target: T1, β Amyloid peptide 1-40; assay: BIAcore, mAb captured by anti-mouse Fc, Aβ 1-40 injected, first set of preparations
Protocol: as §1, §2

β Amyloid peptide 1-40 [17] = target: T1, β Amyloid peptide 1-40; assay: KinExA, Fab, equilibration 16 h
Protocol: as §3, §4

B1: 1A12 monoclonal antibody (IgG1) (antibody, V domains shown)
VH: EVQLVESGGGLVKPGGSLRLSCAASGFTFSRYSMSWVRQAPGKGLEWVGQINIRGNNTYYPDTVKGRFTISRDDSKNTLYLQMNSLKTEDTAVYYCTTGDFWGQGTLVTVSS
VL: DIVMTQTPLSLSVTPGQPASISCRSSQSLIYSDGNAYLHWYLQKPGQSPQLLIYKVSNRFSGVPDRFSGSGSGTDFTLKISRVEAEDVGVYYCSQSTHSPWTFGGGTKVEIK
Fold Increase (kon) (β Amyloid peptide 1-40 [1]): 3 fold
kon (β Amyloid peptide 1-40 [2]): 410000 M⁻¹ s⁻¹

B3: 1C5 monoclonal antibody (IgG1) (antibody, V domains shown)
VH: B1 VH with I53S, R54V, G55A, N57S
VL: B1 VL
Kd (β Amyloid peptide 1-40 [3]): 0.973 nM
koff (β Amyloid peptide 1-40 [3]): 0.000371 s⁻¹
kon (β Amyloid peptide 1-40 [3]): 420000 M⁻¹ s⁻¹

Continued, values first:

Fold Increase (kon) (β Amyloid peptide 1-40 [1]): 5 fold
Kd (β Amyloid peptide 1-40 [3]): 0.0079 nM
koff (β Amyloid peptide 1-40 [3]): 1.01e-05 s⁻¹
kon (β Amyloid peptide 1-40 [3]): 1.28e+06 M⁻¹ s⁻¹
kon (β Amyloid peptide 1-40 [2]): 610000 M⁻¹ s⁻¹
B2: 6C3 monoclonal antibody (IgG1) (antibody, V domains shown)
VH: B1 VH with I53S, N57S
VL: B1 VL with S94T

Kd (β Amyloid peptide 1-40 [4]): 0.0675 nM and 0.0854 nM
Fold Increase (kon) (β Amyloid peptide 1-40 [5]): 1 fold
kon (β Amyloid peptide 1-40 [6]): 210000 M⁻¹ s⁻¹ and 240000 M⁻¹ s⁻¹
kon (β Amyloid peptide 1-40 [7]): 129000 M⁻¹ s⁻¹ and 127000 M⁻¹ s⁻¹ and 88000 M⁻¹ s⁻¹
Kd (β Amyloid peptide 1-40 [3]): 0.0765 nM
koff (β Amyloid peptide 1-40 [3]): 6.73e-06 s⁻¹
kon (β Amyloid peptide 1-40 [3]): 88000 M⁻¹ s⁻¹
Fold increase in affinity (β Amyloid peptide 1-40 [8]): 1 fold
Fold increase in kon (β Amyloid peptide 1-40 [9]): 1 fold
Kd (β Amyloid peptide 1-40 [10]): 0.0765 nM
kon (β Amyloid peptide 1-40 [11]): 230000 M⁻¹ s⁻¹
kon (β Amyloid peptide 1-40 [12]): 154000 M⁻¹ s⁻¹
kon (β Amyloid peptide 1-40 [13]): 157000 M⁻¹ s⁻¹
kon (β Amyloid peptide 1-40 [14]): 186000 M⁻¹ s⁻¹
kon (β Amyloid peptide 1-40 [15]): 240000 M⁻¹ s⁻¹
kon (β Amyloid peptide 1-40 [16]): 130000 M⁻¹ s⁻¹
B4: m266 monoclonal antibody (antibody, V domains shown)
VH: EVKLVESGGGLVQPGGSLKLSCAVSGFTFSRYSMSWVRQTPEKRLELVAQINSVGNSTYYPDTVKGRFTISRDNAEYTLSLQMSGLRSDDTATYYCASGDYWGQGTTLTVSS
VL: DVVMTQTPLSLPVSLGDQASISCRSSQSLIYSDGNAYLHWFLQKPGQSPKLLIYKVSNRFSGVPDRFSGSGSGTDFTLKISRVETEDLGVYFCSQSTHVPWTFGGGTKLEIK
modifications: CDR H2 N-glycosylated at the Asn-Ser-Thr sequence
notes: Captured by goat anti-mouse Fc in BIAcore (mouse Fc); also called mouse antibody 266

Kd (β Amyloid peptide 1-40 [17]): 0.138 nM
koff (β Amyloid peptide 1-40 [17]): 4.96e-05 s⁻¹
kon (β Amyloid peptide 1-40 [17]): 360000 M⁻¹ s⁻¹
B5: m266 Fab fragment (Fab, V domains shown)
VH: B4 VH
VL: B4 VL
